Test results published in the DeepSol protein solubility set.

test: soluble on expression in E. coli; label from the status in PepcDB or PDB records

Sequence	soluble on expression in E. coli
MPYADNGVKIYYEVEDGGEPAIVFVHGWTANMNFWREQREYFKGKHRMLFIDNRGHGKSDKPFNRSFYEFDNFVSDLHAAVKDASFDRFVLVGHSFGTMISMRYCVEHPGRVEALVLIGGGARIQSLHRYGYPIGRLFATLAYGISARIIANMAFGRKAGELRDWGLKEALENTPKHAALNTLWTLTTVDLRDIAREIEKPTLIVVGKEDALLPVSKSEELSRLIKNSKMVIVPDAGHCVMLEQPEIVNRVLEEFIHTFSAMLIRA	not soluble
MTKEKLSWLQQKMLNKSIKKKCQNFRELGYSSINEEDLLTYLLTYRWKKQTHLSVKDCRKDIHKVKPNEFFDYQQLLAQTSKNPLRDWHDIEDLF	not soluble
MSLGNARMYEALRDYGDRFDTVGIFTFEVDETGTITETGTSISSMLPYIQKWPHIKWLLTIMNHGIANIFTALRNNENGAKDKFLTEIIRIMNKYPWCAGVDIDLERGGGYENKDAANALFRDIYNTVKSYDATKLVNICLPGMIGVQGSVGGENWCVYADLNDYCDTAAIMSYGMAWAGSAPGPVSPRDWLEGIYDYAVSVMSPDKIFMGLPAYGWNWRIHDTPENLGITYRGVSNTYYAAKYWMTGVYNFTGDAPPQPFIPIVAYWDDYNKVPWALPHVYDYMEGWDAVSWEYPLLKGVYNRRRYLTSYGKEQKAEFGTIYIDRNGVPDEYEGNVIITDEMTSLGDAQASAEYRFEIREAGYYDIAVQLCFPYWDKNAIIVSLDGISKTFSENEGHHHHHH	not soluble
MGSDKIHHHHHHANNDEWVTCPPGGILAIGTMKIPNADTPRDFFIALDNGDNVLPADTADIRNRKYTVAEGQRVFVGYLQMGKEKPGYENGKIFTIEDILTKEIIPLTEATADSIGDDRINVTAHALTKDYLTIEYQYLGSMNENKKHMLNLVQNEITGPIKDDGYIYLEFRHNAFNDSPNQLGSSLVSFKLDSIAEQLATAKGIKLRVNTIYDNIQYVTIDINEDKNLKIKSFHSQ	not soluble
MLAKVLKKRGAVLRGDFVLSSGRRSSVYIDMRRLLGDESSYSVALDLLLEVGGQDLARSSAVIGVATGGLPWAAMLALRLSKPLGYVRPERKGHGTLSQVEGDPPKGRVVVVDDVATTGTSIAKSIEVLRSNGYTVGTALVLVDRGEGAGELLARMGVRLVSVATLKTILEKLGWGGE	soluble
MRSKYIVIEGLEGAGKTTARNVVVETLEQLGIRDMVFTREPGGTQLAEKLRSLLLDIKSVGDEVITDKAEVLMFYAARVQLVETVIKPALANGTWVIGDRHDLSTQAYQGGGRGIDQHMLATLRDAVLGDFRPDLTLYLDVTPEVGLKRARARGELDRIEQESFDFFNRTRARYLELAAQDKSIHTIDATQPLEAVMDAIRTTVTHWVKELDA	soluble
MVHSNGAITSTILKARHADVVRKTSLHHANDLTLIDLVLNVQRLLALPSDANFVLKYKDEEGDLVTLAEDSDLLLALHTSGATLDVTVVVDSRAREAVHDVQKQVEQIKLDVGKLLGALSALDVAQIAEQSNTSVANLSAPKQSHHDNIVFQKSFEAAPPSPVPSEKAELPATIQPSVHEQFNHRPAHVEEEIPLENHYAPPPHQQIPDDLNTSFSSQPPPPIEQFGAIPPPNATIPSFPTSNAASPPVQEFAPPPPQQQQQQFQAPPPPMASHSSISSTPVQQQGFAPPQQFGGPPPSGPPSEYGGYAPPQQQQQQFGAPPPQGAPQQGFGAPPQGPPQGGPPQGSFGAPPPQQFHAPSPQSFGGPPPPVSSAPGNFAPPPQSGPPGAFAPPPSAFGAPQGPGGPGGYGPPPPGGPGAPGSYGPPQGGPGGFGPPPPGGPGAYGPPPTGFPPVGAPPPGAAGAPGGNPFARGPSATGYRQSPYQQ	not soluble
MAHHHHHHMNIVTSYFLVRKLPGTLAMGGDVLEHQNARQREYMECLRLNQQHPGVASIHLIVEGADAYEHLLKHVLCNPHFQNASTLTTSTAPASARHRRRHAAPIVPVVRFASGMPLYADFFAYANQLLSHRLTMVCNADVYLSPEHFSLSAVEDLFRQSSTLPPPHAAPCGSCQPSTADLAEREAMRPKSAPKRANPLALALTRYESDSPLDAPFLFDYRGSHDAFVLVPPVPPSFVRSVAHPQNCYKAENIVLHELQQSGYLTLNPTLGDGVRLVHRHATDLRQWFPPVDESRYGRAQPNTLAQAASRIREEARVRSLPPSV	not soluble
EPDSVSIPITCCFNVINRKIPIQRLESYTRITNIQCPKEAVIFKTQRGKEVCADPKERWVRDSMKHLDQIFQNLKP	soluble
MCMVHTYLGETINFHITYKKKKSVRLFVDSYGNVEVQAPKGTPVEYLIQLLEEKWDWIQTTRKEMAERARGPQEKDYDQGEGFLYLGNTYPIQISQDANITQDNAVFEKDRLHIYVKELKDEKIQQALKRFYYKQKSLVEKSIKAHQSNFKTKPRSIRITDSSRTWGTCDSNLQLTFNWKLAMAPQRVIDYVVVHEMCHMVHLNHDRSFWRLVGKIMPDYKEMENWLALSSWKMTVMAGDPLEHHHHHH	soluble
MQLKRVAEAKLPTPLGDFLMVGFEELATGHDHAALVFGDISGKTPVLARVHSECLTGDALFSLRCDCGFQLEAALTHIAEEGRGILIYHRQEGRNIGLLNKIRAYALQDQGYDTVEANHQLGFAADERDFTLCADMFKLLGVDEVRLLTNNPKKVEILTEAGINIVERVPLIVGRNPNNEHYLDTKAAKMGHLLSKLEHHHHHH	soluble
MVFKMMYSEAILDYANSKKFRGKLDDATVIEEGKNISCGDEITLYLKVEDGVVKDAKFEGMGCVISQASASLMLERIIGERVEEIFSLIEEAEKMSRGENFDEGKLKNVTLMSDIKNYPARVKCFILAWKTLKEALKKISRP	soluble
MCHEEVFSCCRTRTFHFLRSYGHDGWRNDGRNDERKADVSAHVLLPLHDAYDADDVHDADDGYALHGYEPHDGNDEHADDGSGNHEDCNRTQAKVYEGTYGKTPEENEKVIFSSFFPLFLEE	not soluble
MGSDKIHHHHHHMLKPDRLRALAEALTRQNVMRLRDAAGLLGVSEMTVRRDIAGSPERFTYLGGYIVSATDVPNNAGYSLEEEKDHFAQAKAEASAVAAGLIGNNETLFIDCGTTLTTLARLIPLERHVTVVCYSLNVAEILRRKPNVRMILLGGVYVPSSDSFAGEESLEMLRRMGINKAFISAGGVDTARGVTCWNFHEVALKQAAMASAVERHLVVDQSKFGVVKAVRFSQVDDFDSIITEKGQQLRKRR	not soluble
MTVSGPGTPEPRPATPGASSVEQLRKEGNELFKCGDYGGALAAYTQALGLDATPQDQAVLHRNRAACHLKLEDYDKAETEASKAIEKDGGDVKALYRRSQALEKLGRLDQAVLDLQRCVSLEPKNKVFQEALRNI	soluble
MTALPLSAVTVVSVCYNSDRLIRDLVTAIPDETPIILVDNGHTNTFADLPPHRNVIIVKLDHNLGFGRGCNAGADVAQTPWILFLNPDARLNPGAIEGLLQAAAQYPSAIAFNPRIYNEDGSPYFKRRSWLLPRQHYMKKGWPSADAVVPVLSGAALFVSKKSFDYIGGFDPSIFMYHEDDDLSLRLSALGELRFVRNSTVVHFAGYSSGRSPEIARFKAYHMAQSKIYAGQKHHRPFAKTSTLLQGCLLLLSPHVFFSARRRAKALGFLHGALAKIWSELLNAASTSSQKKT	soluble
TGASNYYIIFTSGTTGVPKGVQISHDNLVSFTNWLLQDFGLEEGARFLAQAPYSFDLSVMSIYPALALGGSLTPLPNEIINDFKQLFTRLPQLTIDVWVSTPSFIELCLMEPSFDGEHLPALRTFLFCGEELPKPTAEKLAARFPTAHIYNTYGPTEATVAISAIEITQEVLKSVQ	not soluble
MSEPADLIGEIDALGIKLQEARASITRRFIGQERVVDLTLTALLCGGHALLIGLPGLGKTRLVETLSTVMGLHGNRIQFTPDLMPADILGSEVLDTAEDGSRRFRFIPGPIFCQLLMADEINRASPRTQSALLQAMQEKTVTVAGENRPLGTPFHVLATQNPIEQEGTYPLPEAQLDRFLVQIDVDYPDRATEREILLATTGVEEAEAHQVMSQADLLGAQVLLRRMPVGESVVEMILDLVRAFRPDEPGVSDRVRDTVAWGPGPRAAQALMLTVRARALLQGRLAPSPEDVLDMARPVLSHRMALNFAARARGDTLAGLIDETAASLTRTEAAALEHHHHHH	not soluble
MKTFKLVGLSVIDDDMHRQDIPFIDGLIINKEDGQNRWLVEAYLDDDYEPMFVSLQRRPEFQLQVTITHTSNDPANMLVTVRSITKMNGHISVLMEGLMIPRRTHLAEVVLAGLVKKGLQGEALLQEFRQQMHERIDAKAPQERKR	not soluble
DQLPGPVRVTVAGGGSARSAGESGFRRGGGRGARRGSDGGASDDDDDDGGGSGGGGGGRGFSTQGAGAKGGGSSGGSVQGIFHVKPYLEGRKCIDHGGEMVSRSAFERAGGSMMAKWYRSIKVLPEGVSLGKWLVSNGLP	not soluble
MEKLVEWENCVSVIEAAILKHKYKQKVNKNIPSLLRVQAHIRKKMVAQ	soluble
MAKTPGLNLSISERASNRLAEIYRNSKENLRISVESGGCHGFQYNLTLEPATKPDIKNDVKDKEFSDDLDDDDSKDIIYVLPEDKGRVIIDSKSLNILNNTTLTYTNELIGSSFKIINGSLKSSCGCGSSFDIEN	not soluble
MGEHKNCKCNRWVISLQAAFDRDDFEKLFRKAVQSITEEEFQRIPEFRHREDALACLFGRLLLRHSAQKFSGEPWNTIRFERTERGKPFLAVPADTTFGLNVSHQGDYVAFASSCSSKVGVDVMRLDNERNNKTADEYINSMAKSASPEELRMMRSQPTEAMKMTMFYRYWCLKEAILKATGVGIMKDLNSLDFRVNLQDRYRPGAFVTSTTVLEDGRLQDQWIFEETFVDAKHSAAVCKEKKLPRECVFRQDPEAKIFFSKITFESLLENAEITNPMPNNAADIFEEFMAKPKKTF	not soluble
MGSDKIHHHHHHMKRVERVIITCAVTGSIHTPSMSPYLPVTPEQIAADSVAAAQAGAAMLHLHARNPRTGRPEQTPERFMEFLPRIREQCGAILNITTGGGLGMTLEERLAPAIAARPEVASMNMGSLNFNISGAAGKIRQFQHEWEKPYLEGTNDFILSNTFSQIEHGMRVLGESGTRFEFECYDVGHLYNLAHFVDRGLVKPPFFVQCIFGILGGIGADPENLLHMRAIADRLFGADYLLSVLAAGRHQMPFVSLSAILGGSVRVGLEDSLFIARHQLARSNAEQVAKIRRIVEELGLTVATADEARAMLATKGGDNVGF	not soluble
MSLSKPLYVFDLDDTLIDGDCAMIWNAFLAEKGIATERNFVEEDRRRMALYAQGKMDMAEYIAFAMQPLAQVPSTTVQDWVEECVSRWIVPKQFAQARELIAQLKQQGNTCLIISASVSFLVKTVAQRFGIEHALGIDLVSQNGCYSGNIEGVASYREGKVLRLQQWLAEQNETYHDVHFYTDSINDLPLCQHADFAYVVNPCPRLKAQAEQHGWPILSWAVEGHHHHHH	soluble
MGSDKIHHHHHHMKISLGPIHYYWSKENIEQFYRRAEHWPVDIVYLGETVCAKRRALRSADWLDIAARLTDAGKEVVLSTLALLEANSDLLQLERICANTHYLVEANDMSAVHLLAGRGPFVIGPHINCYNAETLSLLADLGGRRWIPPVELPATTIAMLQNTRPETMETEAFAYGYLPLSFSARCFTARADNVGKDACELRCIKDPEGRALFTQEQERLFTINGIQLQSGIPCNLLNETVAMSEMGMDIVRISPQLTATESVIRAFHAVLNGEISPPVEYGSPACNGYWYGKPGMQFSPVQGH	not soluble
MGHHHHHHSHKPDEDDANRLGEKVILREQVKELFNEKYGEALGLNRPVLVPYKLIRDSPDAVEVTGLPDDIPFRNPNTYDIHRLEKILKAREHVRMVIINQLQPFAEICNDAKVPAKDSSIPKRKRKRVSEGNSVSSSSSSSSSSSSNPDSVASANQISLVQWPMYMVDYAGLNVQLPGPLNY	not soluble
